According to patent US9202600B2, “Method for production of radioisotope preparations and their use in life science, research, medical application and industry” (priority 2005, dated 2015):
Entries after “also recorded” stand apart in the source; their conditions may differ.

Columns and labels:
CD20 = biological target: T1, CD20 (Homo sapiens, UniProt P11836); experiment: Cell binding of the labeled antibody; format: cell-based; conditions: without extrapolation to infinite antigen excess
T1 construct: endogenous in cells
T1 sequence (P11836 1-297): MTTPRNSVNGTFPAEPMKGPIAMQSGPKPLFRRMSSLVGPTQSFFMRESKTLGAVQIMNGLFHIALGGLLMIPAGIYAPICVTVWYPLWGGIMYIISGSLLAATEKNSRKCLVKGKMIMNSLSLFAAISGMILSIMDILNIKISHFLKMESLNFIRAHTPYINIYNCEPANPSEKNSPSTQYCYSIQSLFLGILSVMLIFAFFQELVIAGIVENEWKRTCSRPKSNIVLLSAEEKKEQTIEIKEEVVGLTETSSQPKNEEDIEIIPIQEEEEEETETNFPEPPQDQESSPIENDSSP
Description: 25-40 μl of the ^149Tb solution characterized above was used immediately for the labeling procedure. The pH was adjusted to 5.5 by adding 60 μl of 3 M CH3COONH4 solution, followed by the addition of 10 μl (40 mg/ml) ascorbic acid. After adding 5 μl of a stock solution of the chelated antibody in PBS (10 mg/ml) the mixture was incubated for 10 min at room temperature, before dilution to a final volume of 1.0 ml in PBS-1% human serum. […] The injection of the radioimmuno-conjugate into the mice was performed 1 h after EOS. The in vitro behavior of the labeled bioconjugate (immunoreactivity, cell binding, cell killing efficiency) has been described in a previous paper [Vranjes S D, Miederer M, Comor J J, Soloviev D, Beyer G-J and the ISOLDE collaboartion. Labeling of monoclonal antibodies with 149-Th for targeted alpha therapy. J Lab Comp Radiopharm 2001; 44:718-720]. With the same antibody the inventors observed up to 55% cell binding without extrapolation to infinite antigen excess.

[1] = Daughter nuclide ingrowth and shelf-life of the 149Tb-labeled bioconjugate; format: physicochemical; conditions: for increase of the long-lived daughter content, factor: fixed dose applied 4 hours after the final purification of the isotope (EOS)
Description: Spallation reaction in combination with on line mass separator technology was used for the production of ^149Tb for this study. The radiochemical separation and purification of the […] was relatively easy to perform in about 30 minutes in this specific case, since the inventors started from non-carrier added preparations. The final ^149Tb preparation was obtained in very high purity and in a small volume, the labeling of the bioconjugate was fast (10 minutes) and almost quantitative. The administration of the preparation should be carried out as rapidly as possible after purification of the ^149Tb, since levels of contamination with daughter nuclides will increase with time. For example, application of a fixed dose of the ^149Tb-labeled bioconjugate 4 hours after the final purification of the isotope itself (EOS) leads to an increase of the long-lived daughter content by a factor of 2. According to the preliminary dose estimation one could define a shelf-life for the labelled ^149Tb-labeled bioconjugate of about 4-6 hours. For a longer delay it would be advisable to repurify the ^149Tb from the accumulated daughter products, a process that could be expected to require 30 minutes.

Daudi cells = experiment: Survival of SCID mice i.v. xenografted with Daudi cells (leukemia model) after immunotherapy or radioimmunotherapy; format: in vivo; conditions: for protection / disease status over 120 days observation: 5.5 MBq 149Tb-labeled Rituximab (5 μg), single i.v. injection
Description: Daudi cells (ATCC Nr. CCL-213) were used to simulate a leukemia model in mice. The cells were cultured in RPMI 1640 medium supplemented with 10% heat-inactivated fetal calf serum and 0.5% penicillin (10000 U/ml)/streptomycin (10 mg/ml) (Sigma-Aldrich). The cell suspension to be injected into mice was prepared by centrifuging the culture for 3 min at 1200 rpm, washing with PBS and re-suspending in PBS at 2.5-10^7 cells per ml.
(§1) The in vivo studies were performed using 26 female SCID mice (C.B.-17/ICR, Iffa Credo) under the authorization Nr: GE 31.1.1049/1879/11. The mice, which were 8 weeks old at the start of the experiment and weighed 20 g on average, were kept in sterile, ventilated boxes. […] Each mouse received 5-10^6 Daudi cells by injection of 0.2 ml cell suspension in PBS into the tail vein. […] According to the authorized protocol the mice were surveyed for 120 days: their behavior was logged each day, their condition was supervised once a week by a veterinarian, and they were weighed three times a week. At the appearance of obvious signs of paralysis, visible tumor masses, or a weight loss of >15%, the mice were sacrificed. One mouse was sacrificed shortly after injection (2 h p.i.) and kept deep-frozen for later analysis, in order to act as a reference for later quantification of the daughter radioactivity distribution.
The survival of animals until sacrifice because of disease development or the end of the experiment (no disease development) was compared between the different groups according a Kaplan Meier analysis using the Lee-Desu evaluation of the Unistat 3.0 statistical package (Megalon, Novato Calif., USA).

[2] = Biodistribution of 149Tb-labeled Rituximab and retention of long-lived daughter radioactivity (gamma spectroscopy of organs); format: in vivo, SCID mice; conditions: for Biodistribution, Liver: SCID mouse, 2 h p.i. (i.v.)
Description: as §1
Organ samples were taken from the sacrificed mice and the radioactivity concentration of the long-lived daughter products was determined by using high-resolution gamma spectroscopy (18% HP—Ge detector in combination with the Gamma spectrometer Genie 2000, Canberra). Whole, intact mice, as well as isolated organ samples were measured. Since the radioactivity content of the samples was essentially very low, long measuring times (between 1 and 24 hours) were applied.

[3] = listed as 149Tb-CHX-A-DTPA-Rituximab
[4] = Group 3, 5 μg 149Tb-labeled Rituximab (5.55 MBq) i.v. 2 days after Daudi cell inoculation
[5] = 2 h p.i., listed as 149Tb-CHX-A-DTPA-Rituximab

Substance: ^149Tb-labeled Rituximab
- cell binding (CD20): up to 55%
- shelf-life ([1]; defined according to the preliminary dose estimation): 4 to 6 h
- increase of the long-lived daughter content, factor ([1]; listed as 149Tb labeled bioconjugate): increase the activity of the daughter product be by a factor 2. In this way
- increase of the long-lived daughter content, factor ([1]; listed as 149Tb-labeled bioconjugate): 2
- time after which the only mouse of the group was lost (abdominal tumor growth) (Daudi cells; 5.5 MBq 149Tb-labeled Rituximab (5 μg Rituximab per animal)): 48 days
- protection / disease status over 120 days observation (Daudi cells): almost complete protection; also recorded: long-term survival without evidence of any disease at 120 days
- protection / disease status over 120 days observation (Daudi cells; [3]): without any visible signs of a disease
- protection / disease status over 120 days observation (Daudi cells; listed as 149Tb-CHX-DTPA-Rituximab): almost completely protected
- Follow-up (120 days after the therapy): no pathologic changes (Daudi cells; [4]): 89% no
- Follow-up (120 days after the therapy): paralyzed, abdominal tumor (Daudi cells; [4]): 11% paralyzed,
- tumor free survival for >120 days, share of treated animals (Daudi cells; SCID mice, single i.v. 5.5 MBq labeled conjugate (5 μg Rituximab) 2 days after i.v. graft of 5·10^6 Daudi cells): 89%
- signs of toxicity over four months (Daudi cells; xenografted SCID mice treated with 149Tb-labeled Rituximab): without detectable signs of toxicity
- Biodistribution, Body total ([2]; 2 h p.i.): 100 % i.d./Organ
- Biodistribution, Bone ([2]; 2 h p.i.): 9.1 ± 0.7 %/g tissue
- Biodistribution, Muscles ([2]; 2 h p.i.): <0.2 %/g tissue
- Biodistribution, Bone ([2]; 2 h p.i., bone total calculated as 9 × both femur activity): 13 ± 1 % i.d./Organ
- Biodistribution, Kidney ([2]; 2 h p.i., both kidneys measured together, listed as 149Tb-CHX-A-DTPA-Rituximab): 24 %/g tissue
- Biodistribution, Heart [2, 5]: 41 %/g tissue
- Biodistribution, Spleen [2, 5]: 42 %/g tissue
- share of the retained daughter activity located in bone tissue ([2]; 120 days after injection): 91.1%
- Remaining daughter radioactivity, Blood ([2]; 120 d p.i.): <0.01 % i.d./Organ
- Remaining daughter radioactivity, Body total (retention of the long-lived daughter products) ([2]; 120 d p.i.): 28.4 ± 4 % i.d./Organ
- Remaining daughter radioactivity, Bone ([2]; 120 d p.i.): 13 ± 2 %/g tissue
- Remaining daughter radioactivity, Heart ([2]; 120 d p.i.): <0.01 % i.d./Organ
- Remaining daughter radioactivity, Lung ([2]; 120 d p.i.): <0.01 % i.d./Organ
- Remaining daughter radioactivity, Muscles ([2]; 120 d p.i.): <0.02 % i.d./Organ
- Remaining daughter radioactivity, Bladder ([2]; 120 d p.i., bladder measured with urine): <0.01 % i.d./Organ
- Remaining daughter radioactivity, Bone ([2]; 120 d p.i., bone total calculated as 9 × both femur activity): 26 ± 4 % i.d./Organ
- Remaining daughter radioactivity, Body total (retention of the long-lived daughter products) ([2]; 120 d p.i., listed as 149Tb-CHX-A-DTPA-Rituximab): 28.4±4 % i.d./Organ
- Remaining daughter radioactivity, Body total (retention of the long-lived daughter products) ([2]; 120 d p.i., listed as labeled antibody conjugate): 28.4±4 % i.d./Organ
- Biodistribution, Liver [2]: 18 ± 3 % i.d./Organ
- Biodistribution, Liver [2, 3]: 18±3 % i.d./Organ
- primary injected radioactive atoms excreted from the mice ([2]; after 120 days): 71.6%
